Values belong to the binder of their own block, whether it stands above or below them. Ends that are not written are not given here. * marks the point of attachment. FITC = O=C1OC2(c3ccc(O)cc3Oc3cc(O)ccc32)c2ccc(NC(=S)*)cc21
Legend:
[1] = biological target: T1, soluble αVβ6 headpiece, disulfide-linked (αV headpiece residues 1-594 with M400C); β6 headpiece residues 1-474 … (UniProt P06756 31-624; P18564 18-491, Interchain disulfide between αV Cys-400 and β6 Cys-270.); assay: fluorescence anisotropy competition
T1 alpha: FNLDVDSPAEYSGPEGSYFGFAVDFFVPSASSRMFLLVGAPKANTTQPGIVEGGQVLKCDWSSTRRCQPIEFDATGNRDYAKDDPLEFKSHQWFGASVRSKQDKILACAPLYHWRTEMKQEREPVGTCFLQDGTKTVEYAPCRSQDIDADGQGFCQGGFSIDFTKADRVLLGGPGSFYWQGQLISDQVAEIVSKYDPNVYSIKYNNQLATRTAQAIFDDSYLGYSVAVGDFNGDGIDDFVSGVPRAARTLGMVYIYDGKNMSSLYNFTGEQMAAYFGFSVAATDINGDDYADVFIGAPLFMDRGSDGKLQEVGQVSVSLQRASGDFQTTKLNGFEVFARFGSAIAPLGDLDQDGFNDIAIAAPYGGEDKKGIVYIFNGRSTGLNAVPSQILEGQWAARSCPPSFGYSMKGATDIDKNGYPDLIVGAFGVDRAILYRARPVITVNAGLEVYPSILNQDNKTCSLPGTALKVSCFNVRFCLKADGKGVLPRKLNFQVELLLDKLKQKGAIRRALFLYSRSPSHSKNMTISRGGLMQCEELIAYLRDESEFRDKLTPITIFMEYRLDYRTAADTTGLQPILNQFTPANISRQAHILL
T1 beta: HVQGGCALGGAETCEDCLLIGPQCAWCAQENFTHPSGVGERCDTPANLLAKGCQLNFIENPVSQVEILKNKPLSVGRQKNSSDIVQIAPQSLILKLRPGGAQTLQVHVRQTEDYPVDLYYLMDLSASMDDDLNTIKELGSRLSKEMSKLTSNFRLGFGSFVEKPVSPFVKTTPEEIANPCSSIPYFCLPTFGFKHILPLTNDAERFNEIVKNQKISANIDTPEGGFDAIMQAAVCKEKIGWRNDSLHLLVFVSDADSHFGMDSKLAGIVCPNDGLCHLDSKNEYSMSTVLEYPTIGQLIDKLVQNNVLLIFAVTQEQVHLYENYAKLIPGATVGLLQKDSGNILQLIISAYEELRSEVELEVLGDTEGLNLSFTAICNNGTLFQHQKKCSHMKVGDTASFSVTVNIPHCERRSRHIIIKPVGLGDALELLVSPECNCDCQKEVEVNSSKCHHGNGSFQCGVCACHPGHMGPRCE

[2] = biological target: T2, soluble αVβ6 headpiece, disulfide-linked (αV headpiece residues 1-594 with M400C); β6 headpiece residues 1-474 … (human, UniProt P06756 31-624; P18564 18-491, Interchain disulfide between αV Cys-400 and β6 Cys-270.); assay: fluorescence anisotropy, competition with FITC-GRGDLGRL on the αVβ6 headpiece
T2 construct: The 3C site, ACID/BASE coiled-coils, Strep-II tag and His tags were cut off with 3C protease; The two chains are linked by the introduced disulfide bond; also called modified integrin αVβ6 headpiece dimer; full headpiece
Description: (§1) Ligands bind to the integrin headpiece, which contains the α-subunit β-propeller domain and thigh domain, and the β-subunit βI, hybrid, PSI, and EGF1 domain. […] (SEQ ID NO: 68), peptide affinity for the αVβ₆ and αVβ₃ headpiece was measured with fluorescence anisotropy.
(§2) Fluorescence anisotropy. […] Binding affinities were calculated as described in Ref. 23.

[3] = biological target: T3, soluble αVβ3 headpiece, disulfide-linked (αV headpiece residues 1-594 with M400C); β3 headpiece residues 1-472 … (UniProt P06756 31-624; P05106 27-498, Interchain disulfide between αV Cys-400 and β3 Cys-267.); assay: fluorescence anisotropy competition
T3 alpha: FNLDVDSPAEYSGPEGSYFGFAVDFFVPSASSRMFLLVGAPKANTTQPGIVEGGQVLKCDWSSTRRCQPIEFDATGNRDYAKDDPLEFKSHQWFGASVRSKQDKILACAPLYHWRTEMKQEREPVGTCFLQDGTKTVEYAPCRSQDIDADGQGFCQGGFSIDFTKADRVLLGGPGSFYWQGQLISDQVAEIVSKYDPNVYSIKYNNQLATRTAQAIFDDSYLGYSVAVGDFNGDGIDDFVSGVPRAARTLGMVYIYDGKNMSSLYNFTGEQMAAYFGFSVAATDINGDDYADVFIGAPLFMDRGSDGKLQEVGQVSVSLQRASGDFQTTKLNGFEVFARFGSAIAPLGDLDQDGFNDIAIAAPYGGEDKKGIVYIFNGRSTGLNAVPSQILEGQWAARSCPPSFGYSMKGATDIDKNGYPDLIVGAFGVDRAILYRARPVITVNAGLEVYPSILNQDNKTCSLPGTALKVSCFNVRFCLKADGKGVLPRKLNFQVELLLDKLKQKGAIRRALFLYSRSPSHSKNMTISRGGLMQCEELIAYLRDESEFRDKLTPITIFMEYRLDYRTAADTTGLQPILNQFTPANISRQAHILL
T3 beta: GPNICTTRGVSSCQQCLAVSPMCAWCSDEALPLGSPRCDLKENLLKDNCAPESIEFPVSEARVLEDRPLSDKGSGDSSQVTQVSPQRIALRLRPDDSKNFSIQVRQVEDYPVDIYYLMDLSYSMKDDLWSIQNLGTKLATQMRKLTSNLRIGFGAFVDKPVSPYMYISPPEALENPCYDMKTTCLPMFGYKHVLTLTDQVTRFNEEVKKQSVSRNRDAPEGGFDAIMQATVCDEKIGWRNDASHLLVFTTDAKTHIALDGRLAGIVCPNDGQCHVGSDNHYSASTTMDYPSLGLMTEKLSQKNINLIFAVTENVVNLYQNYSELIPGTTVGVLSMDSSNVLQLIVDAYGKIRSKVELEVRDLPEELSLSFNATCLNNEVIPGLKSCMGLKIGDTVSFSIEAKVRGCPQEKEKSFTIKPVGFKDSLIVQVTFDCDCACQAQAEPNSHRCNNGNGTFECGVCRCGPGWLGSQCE

[4] = biological target: T4, soluble αVβ3 headpiece, disulfide-linked (αV headpiece residues 1-594 with M400C); β3 headpiece residues 1-472 … (human, UniProt P06756 31-624; P05106 27-498, Interchain disulfide between αV Cys-400 and β3 Cys-267.); assay: fluorescence anisotropy, competition with FITC-GRGDLGRL on the αVβ3 headpiece
T4 construct: tags and coiled-coils cut off with 3C protease
Description: as §1, §2

[5] = biological target: T2, soluble αVβ6 headpiece, …; assay: fluorescence anisotropy, saturation binding, Mn2+/Ca2+
Description: (§3) (SEQ ID NO: 68), was synthesized. […] By competition binding assay, the affinities of different ligands were measured.
as §2

[6] = biological target: T2, soluble αVβ6 headpiece, …; assay: fluorescence anisotropy, saturation binding, 1 mM Mg2+/Ca2+
Description: as §3, §2

[7] = biological target: T1, soluble αVβ6 headpiece, …; assay: fluorescence anisotropy; pH 5.0
[8] = biological target: T1, soluble αVβ6 headpiece, …; assay: fluorescence anisotropy; pH 6.0
[9] = biological target: T1, soluble αVβ6 headpiece, …; assay: fluorescence anisotropy; pH 7.0
[10] = biological target: T1, soluble αVβ6 headpiece, …; assay: fluorescence anisotropy; pH 8.0
[11] = biological target: T1, soluble αVβ6 headpiece, …; assay: fluorescence anisotropy; pH 9.0
[12] = biological target: T2, soluble αVβ6 headpiece, …; assay: crystal structure, peptide soaked into αVβ6 headpiece crystals
Description: αVβ₆ headpiece crystallization, data collection and structure determination. αVβ₆ crystals in hanging drops were formed with 3 mg/ml αVβ₆ headpiece in 20 mM Tris-HCl pH 8.0, 150 mM NaCl, 1 mM CaCl₂ and 1 mM MgCl₂ buffer (1 μl) and 1 μl reservoir solution of 20% PEG 4000, 0.1 M sodium cacodylate pH 6.0, 0.2 M ammonium sulfate. Identical vol:vol mixture of the protein and crystallization buffers yields a pH of 6.5. […] Immediately prior to flash freezing in liquid N₂, crystals were dipped in reservoir solution containing 25% glycerol with or without peptide, MgCl₂, and CaCl₂ each at 0.25 mM.

Kd [2]: 10.3 nM
B2: nonapeptide containing RGD from pro-TGF-β1 (peptide)
peptide: RRGDLATIH
notes: also called pro-TGF-β1 peptide

Kd [3]: 2300 nM
fold lower affinity than for αVβ6 [4]: 1000 fold
Kd [2]: 8.5 nM
B4: nonapeptide containing RGD from pro-TGF-β3 (GRGDLGRLK) (peptide)
peptide: GRGDLGRLK
notes: also called pro-TGF-β3 peptide; TGF-β3 nonapeptide

Kd [5]: 10 nM
Kd [6]: 100 nM
Kd [7]: 3810 nM
Kd [8]: 2000 nM
Kd [9]: 212 nM
Kd [10]: 84.6 nM
Kd [11]: 27.4 nM
B6: FITC-GRGDLGRL (FITC-pro-TGF-β3 peptide, fluorescence probe) (peptide)
peptide: {FITC}-GRGDLGRL
notes: also called the probe

Kd [3]: 4800 nM
Kd [2]: 8500 nM
fold lower affinity than the pro-TGF-β1 and pro-TGF-β3 nonapeptides [2]: 1000 fold
B7: homologous peptide from pro-TGF-β2, which has SGDQ in place of RGDL of pro-TGF-β1 (peptide)
peptide: TSGDQKTIK
notes: also called pro-TGF-β2 peptide

binding result [12]: binds
Kd [1]: 7.3 nM
B11: pro-TGF-β3 undecapeptide Ac-HGRGDLGRLKK-NH2 (peptide)
peptide: Ac-HGRGDLGRLKK-NH2
notes: also called Pro-TGF-β3 peptide; TGF-β3 peptide

The next lines start with the binder.

B1: HGRGD (peptide)
chain: HGRGD
Kd [1]: 8900 nM

B3: HGRGDLG (peptide)
chain: HGRGDLG
Kd [1]: 691 nM

B5: HGRGDLGRL (peptide)
chain: HGRGDLGRL
Kd [1]: 28.4 nM

B8: HGRGDLGRLK (peptide)
chain: HGRGDLGRLK
Kd [1]: 20.3 nM

B9: HGRGDL (peptide)
chain: HGRGDL
Kd [1]: 966 nM

B10: HGRGDLGR (peptide)
chain: HGRGDLGR
Kd [1]: 296 nM
